Molecular target: T1, HGFR (Homo sapiens, UniProt P08581)
T1 construct: purchased R&D Systems
Assay: Receptor binding assay (HGFR), ELISA
Details: peptide coated 50 μg/25 μl, O.D. 450 nm
Description: On an ELISA plate, 50 μg/25 μl peptide and 25 μl of a coating buffer (20 mM sodium phosphate pH 9.6) were added and mixed, and then incubated at 4° C. overnight. After washing three times with PBST (300 μl), the blocking with 200 μl of a blocking buffer (3% BSA) was carried out at room temperature for 2 hours. After washing three times with PBST (300 μl), HGFR (R&D Systems) was added at 0.5 μg/1 ml per well, followed by incubation at room temperature for 2 hours. After washing three times with PBST (300 μl), anti-human IgG-HRP was diluted at 1:1,000, which was then added at 100 μl per well, followed by incubation at room temperature for 2 hours. After washing three times with PBST (300 μl), 100 μl of TMB solution was added, followed by color development. 50 μl of a stop solution (3 N H2SO4) was added to stop the reaction, and then the absorbance was read at O.D. 450 nm.

T1 sequence (P08581 25-1390): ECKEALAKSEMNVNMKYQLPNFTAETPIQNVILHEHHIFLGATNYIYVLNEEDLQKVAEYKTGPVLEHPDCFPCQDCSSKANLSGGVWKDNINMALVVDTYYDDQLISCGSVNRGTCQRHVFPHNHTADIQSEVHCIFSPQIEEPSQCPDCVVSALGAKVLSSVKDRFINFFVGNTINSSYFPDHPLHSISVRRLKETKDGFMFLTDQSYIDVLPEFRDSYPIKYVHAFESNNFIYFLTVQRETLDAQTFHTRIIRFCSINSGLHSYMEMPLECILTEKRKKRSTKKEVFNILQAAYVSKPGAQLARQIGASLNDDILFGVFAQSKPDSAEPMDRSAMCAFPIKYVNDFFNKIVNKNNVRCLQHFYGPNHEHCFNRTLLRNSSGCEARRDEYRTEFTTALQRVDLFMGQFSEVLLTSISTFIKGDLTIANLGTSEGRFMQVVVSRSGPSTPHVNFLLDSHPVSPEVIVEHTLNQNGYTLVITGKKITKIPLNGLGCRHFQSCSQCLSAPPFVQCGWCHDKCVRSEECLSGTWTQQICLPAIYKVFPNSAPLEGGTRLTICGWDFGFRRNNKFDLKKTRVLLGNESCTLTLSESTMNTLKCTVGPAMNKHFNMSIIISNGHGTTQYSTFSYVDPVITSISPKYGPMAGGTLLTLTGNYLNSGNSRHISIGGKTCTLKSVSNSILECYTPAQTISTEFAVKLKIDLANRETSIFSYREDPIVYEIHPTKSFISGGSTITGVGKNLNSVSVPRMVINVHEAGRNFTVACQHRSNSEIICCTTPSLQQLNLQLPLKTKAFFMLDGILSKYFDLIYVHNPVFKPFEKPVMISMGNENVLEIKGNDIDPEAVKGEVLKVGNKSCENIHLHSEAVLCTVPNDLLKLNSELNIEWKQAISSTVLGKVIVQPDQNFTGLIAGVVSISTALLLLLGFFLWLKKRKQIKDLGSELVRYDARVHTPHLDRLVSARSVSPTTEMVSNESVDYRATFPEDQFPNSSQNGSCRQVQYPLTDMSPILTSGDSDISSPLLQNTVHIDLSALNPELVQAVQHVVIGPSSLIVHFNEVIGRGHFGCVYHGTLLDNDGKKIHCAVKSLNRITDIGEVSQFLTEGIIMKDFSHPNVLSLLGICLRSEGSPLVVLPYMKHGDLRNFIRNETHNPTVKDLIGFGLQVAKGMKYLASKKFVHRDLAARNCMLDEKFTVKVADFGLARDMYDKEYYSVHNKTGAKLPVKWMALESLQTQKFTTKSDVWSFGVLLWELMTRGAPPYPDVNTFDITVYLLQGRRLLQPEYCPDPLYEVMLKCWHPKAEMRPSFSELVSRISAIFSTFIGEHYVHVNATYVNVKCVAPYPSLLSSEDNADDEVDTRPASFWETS

NH2-Ala-Cys-Arg-Ser-Ala-Ile-Gly-Arg-Pro-Cys-COOH (H-ACRSAIGRPC-OH; cysteine pairing not given here) [SEQ ID NO: 1]
binding affinity on HGFR: high binding affinity
